We go through one substance from article PMC11002309.

In this data set the test system is PBRM1-BD4 WT. Briefly: EMSA. The following applies: 20 uM chosen from titration to approximate EC50; 150 nM DNA, protein 0-50 uM; EMSA: 10.5 mM K3PO4 pH 7 (20 °C), 10 mM KCl, 1% v/v glycerol, 0.2 mM DTT; 1 h on ice; 5% 75:1 native gel in 0.2x TBE, 4 °C. In general terms: Mobility shift assays separate free from complexed probe on a gel.

Widom 601 DNA had a K half of 20 µM.
